# Laboratory results reported in patent US20240052048A1.
# Biological target: monkey BCMA on BCMA-CHO cells (cynomolgus monkey)
# Test: flow cytometry (MFI) on CHO cells expressing monkey BCMA; EC50 table in the figure; fit value for a flat control curve
# Chain of monkey BCMA on BCMA-CHO cells (cynomolgus monkey) (chain, as listed by the source): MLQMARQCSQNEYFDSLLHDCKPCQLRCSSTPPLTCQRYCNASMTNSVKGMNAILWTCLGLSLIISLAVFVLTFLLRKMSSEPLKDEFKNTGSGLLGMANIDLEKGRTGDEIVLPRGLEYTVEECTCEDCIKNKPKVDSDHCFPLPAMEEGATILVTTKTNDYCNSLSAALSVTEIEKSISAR
substance,measurement,value
Irrelevant antibody,EC50,0.357 µg/mL
